From publication PMC4041364

T1: Granzyme A (GzmA) (human, UniProt P12544 29-262)
T1 sequence: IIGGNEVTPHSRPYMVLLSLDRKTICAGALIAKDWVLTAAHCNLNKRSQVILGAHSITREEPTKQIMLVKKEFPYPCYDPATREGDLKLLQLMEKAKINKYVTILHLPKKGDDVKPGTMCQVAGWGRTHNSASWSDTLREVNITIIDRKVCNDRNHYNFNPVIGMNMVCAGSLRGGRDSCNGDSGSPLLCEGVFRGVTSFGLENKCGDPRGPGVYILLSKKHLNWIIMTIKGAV

T2: Cathepsin G (CATG) (human, UniProt P08311 21-244)
T2 sequence: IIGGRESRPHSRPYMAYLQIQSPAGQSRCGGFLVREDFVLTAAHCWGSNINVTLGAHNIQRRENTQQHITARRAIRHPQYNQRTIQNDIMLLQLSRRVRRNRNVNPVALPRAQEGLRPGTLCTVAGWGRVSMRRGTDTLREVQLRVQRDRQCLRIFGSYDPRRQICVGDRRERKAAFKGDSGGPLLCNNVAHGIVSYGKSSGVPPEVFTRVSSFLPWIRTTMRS

B1: BB94 dsDNA (dsDNA)
DNA 1: TCTGTGAGTTGAACGCACACATCACAAAGGAG
DNA 2: CTCCTTTGTGATGTGTGCGTTCAACTCACAGA

Experiments:
[1] = target: HuR (human antigen R) (UniProt Q15717 1-326); assay: fluorescence polarization
[2] = target: T3, Granzyme B (GzmB) (human, UniProt P10144 21-247); assay: fluorescence polarization
[3] = target: T1, Granzyme A (GzmA); assay: fluorescence polarization
[4] = target: T2, Cathepsin G (CATG); assay: pull-down
[5] = target: Pancreatic elastase (PE) (porcine, UniProt P00772 27-266); assay: pull-down
[6] = target: T4, Neutrophil elastase (NE) (human, UniProt P08246 30-267); assay: pull-down
[7] = target: T3, Granzyme B (GzmB); assay: pull-down
[8] = target: T1, Granzyme A (GzmA); assay: pull-down
[9] = target: T2, Cathepsin G (CATG); assay: fluorescence polarization
[10] = target: T4, Neutrophil elastase (NE); assay: fluorescence polarization
[11] = target: Histone H1 (UniProt P07305 1-194); assay: fluorescence polarization
Chain of Histone H1 (P07305 whole entry): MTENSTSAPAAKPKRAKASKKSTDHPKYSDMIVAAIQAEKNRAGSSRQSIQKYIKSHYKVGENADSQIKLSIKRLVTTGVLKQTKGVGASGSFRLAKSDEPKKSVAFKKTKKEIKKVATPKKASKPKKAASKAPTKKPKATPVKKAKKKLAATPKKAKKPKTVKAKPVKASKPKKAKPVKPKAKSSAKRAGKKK

T4 sequence (P08246 30-267): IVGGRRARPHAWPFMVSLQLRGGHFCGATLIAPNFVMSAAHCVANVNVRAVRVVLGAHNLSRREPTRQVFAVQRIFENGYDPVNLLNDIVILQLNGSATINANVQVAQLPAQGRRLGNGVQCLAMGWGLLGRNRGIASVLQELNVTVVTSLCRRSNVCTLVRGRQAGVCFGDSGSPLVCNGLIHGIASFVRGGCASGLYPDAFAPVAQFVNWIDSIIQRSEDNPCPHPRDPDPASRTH
Chain of HuR (human antigen R) (Q15717 whole entry): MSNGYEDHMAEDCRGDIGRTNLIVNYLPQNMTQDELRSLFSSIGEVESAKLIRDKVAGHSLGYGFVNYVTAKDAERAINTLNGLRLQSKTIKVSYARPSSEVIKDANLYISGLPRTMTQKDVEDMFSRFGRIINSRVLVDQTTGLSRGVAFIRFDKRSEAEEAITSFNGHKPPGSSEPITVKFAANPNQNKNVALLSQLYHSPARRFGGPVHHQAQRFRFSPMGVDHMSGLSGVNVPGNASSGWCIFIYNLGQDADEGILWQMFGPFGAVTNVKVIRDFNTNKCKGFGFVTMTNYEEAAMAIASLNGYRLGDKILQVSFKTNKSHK
T3 sequence (P10144 21-247): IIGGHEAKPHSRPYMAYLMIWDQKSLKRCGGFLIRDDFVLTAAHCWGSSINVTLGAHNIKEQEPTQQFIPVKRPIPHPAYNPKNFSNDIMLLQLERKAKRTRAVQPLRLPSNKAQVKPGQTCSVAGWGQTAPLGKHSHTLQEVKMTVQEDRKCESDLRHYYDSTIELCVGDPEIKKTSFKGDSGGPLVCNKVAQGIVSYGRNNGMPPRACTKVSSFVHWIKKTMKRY
Chain of Pancreatic elastase (PE) (P00772 27-266): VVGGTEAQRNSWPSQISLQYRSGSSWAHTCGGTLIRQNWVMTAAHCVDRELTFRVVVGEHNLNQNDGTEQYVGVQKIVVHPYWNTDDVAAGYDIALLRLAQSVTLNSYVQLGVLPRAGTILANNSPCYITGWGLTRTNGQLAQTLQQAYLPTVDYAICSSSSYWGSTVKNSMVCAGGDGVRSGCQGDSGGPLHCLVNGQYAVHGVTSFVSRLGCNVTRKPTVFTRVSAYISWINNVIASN

Binder | Kd [1] | Kd [2] | Kd [3] | binding result [4] | binding result [5] | binding result [6] | binding result [7] | binding result [8] | Kd [9] | Kd [10] | Kd [11]
UUUUUUUUUUUUUUUUUUUUUUUUUUUUUU (ssRNA) [rU(30)] | 121 nM | 159 nM | 232 nM |  |  |  |  |  |  |  | 
TTTTTTTTTTTTTTTTTTTTTTTTT (ssDNA) [Oligo(dT)25 beads] |  |  |  | binds | no binding | binds | binds | binds |  |  | 
TTTTTTTTTTTTTTTTTTTTTTTTTTTTTT (ssDNA) [dT(30)] |  | 45 nM | 48 nM |  |  |  |  |  |  |  | 
UCUGUGAGUUGAACGCACACAUCACAAAGGA (ssRNA) [BB94 RNA] | 4800 nM | 480 nM | 1600 nM |  |  |  |  |  |  |  | 
CCCAAGCUUAUUUAUUUAUUUAUUGCAGGUC (ssRNA) [AU RNA] | 492 nM | 651 nM | 401 nM |  |  |  |  |  | 165 nM | 602 nM | 
TCTGTGAGTTGAACGCACACATCACAAAGGAG (ssDNA) [BB94 ssDNA] |  | 35 nM | 122 nM |  |  |  |  |  | 22 nM | 272 nM | 10 nM
B1 |  | 161 nM | 120 nM |  |  |  |  |  | 35 nM | 607 nM | 9 nM
